Experimental data published in US7423017B2, “Method for treating cartilage disorders” (Genentech, Inc., priority 1997, dated 2008).
Entries after “also recorded” stand apart in the source; their conditions may differ. Marks after values point to notes of the source that are not given here. Positions of bridges follow the written chain, without caps; N, C: chain ends. Residues, ends and D or L forms follow the SMILES beside them. No end group written: not given here.

Legend:
[1] = target: T1, IGFBP-3 (Homo sapiens, UniProt P17936); assay: BIACORE kinetics: IGFBP-3 binding to immobilized IGF-1 variants; conditions: for Binding to IGFBP-3 ka: 25 C; for Binding to IGFBP-3 KD: kd/ka; for IGFBP-3 ka / IGFBP-3 kd: Table XV
T1 construct: made in house
Protocol: (§1) The binding affinities of the IGF variants for IGFBP-1 and IGFBP-3 were determined using a BIACORE™-2000 real time kinetic interaction analysis system (Biacore, Inc., Piscataway, N.J.) to measure association (ka) and dissociation (kd) rates. Carboxymethylated dextran biosensor chips (CM5, BIAcore Inc.) were activated with EDC (N-ethyl-N′-(3-dimethylaminopropyl)-carbodiimide hydrochloride) and NHS(N-hydroxysuccinimide) according to the supplier's instructions. For immobilization, IGF mutants in 20 mM sodium acetate, pH 4.8, were injected onto the biosensor chip at a concentration of 50 μg/ml to yield approximately 450-600 RU's (resonance-responce units) of covalently-coupled protein. Unreacted groups were blocked with an injection of 1 M ethanolamine. Kinetic measurements were carried out by injecting two-fold serial dilutions (starting at 1 μM) of either IGFBP-1 or IGFBP-3 in running buffer (PBS, 0.05% TWEEN 20™, 0.1% ovalbumin, 0.1% sodium azide) at 25 °C using a flow rate of 20 μl/min. Association rates (ka) and dissociation rates (kd) were calculated separately using a 1:1 Langmuir™ association model in the BIACORE™ evaluation software v. 3.0. The equilibrium dissociation constant (KD) was calculated as kd/ka.

[2] = test system: IGFBP-1; assay: BIACORE kinetics: IGFBP-1 binding to immobilized IGF-1 variants; set-up: species or system human; conditions: from relative KD values
Protocol: as §1
(§2) For measurements of IGFBP-1 binding to IGF-1, kinetics experiments were conducted using a single-cysteine IGF-1 variant, Y31C, that was immobilized onto the sensor chip surface via a disulfide linkage (BIACORE™ System Manual Supplement, 5a-1, Pharmacia (1991)).

[3] = target: T2, IGFBP-1 (Homo sapiens, UniProt P08833); assay: as above; set-up: made in house; host or cells: CHO cells; conditions: for Binding to IGFBP-1 ka: 25 C; for Binding to IGFBP-1 KD: kd/ka
T2 sequence (P08833 26-259): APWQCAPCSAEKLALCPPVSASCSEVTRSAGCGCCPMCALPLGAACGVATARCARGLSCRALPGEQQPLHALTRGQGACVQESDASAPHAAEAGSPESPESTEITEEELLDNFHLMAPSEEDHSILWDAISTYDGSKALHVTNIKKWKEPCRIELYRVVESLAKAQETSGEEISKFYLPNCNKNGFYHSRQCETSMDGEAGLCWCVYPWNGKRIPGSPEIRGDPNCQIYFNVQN
Protocol: as §1, §2

[4] = target: T2, IGFBP-1; assay: competitive phage ELISA of IGF-1 mutants, IGFBP-1; format: binding; set-up: made in house; host or cells: CHO cells; conditions: phage display, soluble IGFBP-1 competitor
Protocol: (§3) An alanine-scanning mutagenesis approach (Cunningham and Wells, Science, 244: 1081-1085 (1989); U.S. Pat. No. 5,834,250) was used to remove that portion of each side chain of IGF-1 beyond the beta carbon. The contribution of these atoms to the free energy of binding of the IGF-1 analog to IGFBP-1 or to IGFBP-3 was then assessed by competitive phage ELISA. In this assay, IGFBP-1 or IGFBP-3 is used to inhibit IGF-phage mutants from binding to an IGFBP-1- or IGFBP-3-coated immunosorbant plate.
(§4) Immunosorbent plates (Nunc, MAXISORP™, 96 wells) were coated with 100 μl/well of 1 μg/ml IGFBP-1 or IGFBP-3 in PBS buffer pH 7.2 at 4° C. overnight. The plates were then blocked with 0.5% TWEEN 20™/PBS (also used as binding buffer) for 2 hours at room temperature (proteinaceous blocking agents like bovine serum albumin were avoided to prevent potential IGF or IGFBP contamination). E. coli cells (XL1-Blue, Stratagene) freshly transformed with phagemid vector were grown overnight in 5 mL 2YT medium (Sambrook et al., supra) in the presence of M13-VCS helper phage (Stratagene). Phage particles were harvested and resuspended in PBS buffer as described in Lowman, H. B., “Phage Display of Peptide Libraries on Protein Scaffolds,” in Cabilly, S. (ed.), Combinatorial Peptide Library Protocols (Humana Press Inc.: Totowa, N.J., 1998), pp. 249-264. Then phage concentrations were normalized to yield a maximal ELISA signal of 0.2-0.4 for each mutant (Lowman, in Cabilly, S. (ed.), supra). Threefold serial dilutions of soluble competitor were prepared on non-absorbent microtiter plates (Nunc, F, 96 wells) with binding buffer (0.5% TWEEN 20™/PBS) containing phage at the previously determined concentrations. The dilution range of competitor protein extended over six orders of magnitude, starting at 5 μM for IGFBP-1 and 500 nM for IGFBP-3. After blocking, the plates containing immobilized target were washed with 0.05% TWEEN™/PBS buffer and subsequently incubated with 80 μl/well of the premixed phage-competitor solutions for 1 hour at room temperature. After washing, bound phage was detected with 80 μl/well of a solution containing a primary rabbit anti-phage polyclonal antibody and a secondary goat anti-rabbit monoclonal antibody-horseradish peroxidase conjugate in 0.5% TWEEN 20™/PBS. o-Phenylenediamine (Sigma) and tetramethylbenzidine (Kirkegaard and Perry) were used as chromogenic substrates, resulting in product detection at 492 and 450 nm, respectively. IC50 values were determined by fitting the binding data to a generic saturation curve (Lowman, in Cabilly, S. (ed.), supra). At least two individual clones of each IGF-1 mutant were assayed. Numbers in Table XIII represent mean±standard deviation of individually assessed IC50 values.

[5] = test system: IGFBP-1; assay: competitive phage ELISA of IGF-1 mutants, IGFBP-1; format: binding, human; conditions: relative IC50 IGFBP-1/relative IC50 IGFBP-3
Protocol: as §3, §4

[6] = target: T1, IGFBP-3; assay: competitive phage ELISA of IGF-1 mutants, IGFBP-3; format: binding; conditions: phage display, soluble IGFBP-3 competitor
Protocol: as §3, §4

[7] = blood clearance, pharmacokinetics and tissue distribution of radiolabeled IGF-1 variants, IV in rats; format: in vivo, rat
[8] = test system: human articular cartilage explants; assay: human articular cartilage explants from diseased joints: matrix synthesis (35S-sulfate uptake); format: cell-based; conditions: for matrix synthesis in diseased human articular cartilage: 40 ng/ml
Protocol: The metacarpophalangeal joint of a six-month old pig was cultured as described above for bovine articular cartilage in Example 8. This explant was cultured in media alone or in media with D12K, D12R, or wild-type IGF-1 (at 10 nM) alone or in the presence of IL-1α at 1 ng/ml, as described above. Human explants were from patients undergoing joint replacement surgery. Articular cartilage was harvested, aliquoted (40-45 mg/tube) and cultured as above. […] Fresh media was added on days 0, 1, 2, and 3. Matrix breakdown was determined by measuring the amount of proteoglycans in the media using the DMMB assay as set forth above. Matrix (proteoglycan) synthesis was determined by measuring ^35S-sulfate uptake as set forth above.
Human articular cartilage explants were cultured in media or treated with IGF-1 by itself or in combination with either BP3-40 or BP3-15 at 0.1 mg/ml as set forth above. Matrix breakdown was determined by measuring the release of proteoglycans into media as described above. Matrix synthesis was determined by counting the amount of ^35S-sulfate incorporated into the cartilage tissue as described above.
The same Material and Methods (for human tissue) were used as described above, using articular cartilage explants from human joints removed from patients undergoing joint replacement. These explants were cultured with IGF-1 alone at 40 ng/ml, or IGF-1 with BP1-17, BP3-15, or BP1-16 (0.1 mg/ml), or IGF-1 with buffer (HEPES).

[9] = target: T1, IGFBP-3; assay: BIACORE competition assay: IGFBP-3 binding to immobilized IGF-1
Protocol: IGF-1 was immobilized on a dextran chip for inhibition assays using a BIACORE™ 2000 surface-plasmon-resonance device (BIAcore, Inc., Piscataway, N.J.) to measure free binding protein. IGF-1 was biotinylated as described above, and injected over a chip to which streptavidin had been coupled (BIAcore, Inc.) to give 400 to 800 RU (response units) of immobilized IGF-1. […] Serial dilutions of peptide were mixed with a constant concentration (40 nM) of IGFBP-3. After incubation for >1 hour at room temperature, an aliquot of 20 μL was injected at a flow rate of 20 μL/min over the IGF-1 chip. Following the injection, a response reading was taken to measure the relative amount of IGFBP-3 bound to the IGF-1.

T1 sequence (P17936 28-291): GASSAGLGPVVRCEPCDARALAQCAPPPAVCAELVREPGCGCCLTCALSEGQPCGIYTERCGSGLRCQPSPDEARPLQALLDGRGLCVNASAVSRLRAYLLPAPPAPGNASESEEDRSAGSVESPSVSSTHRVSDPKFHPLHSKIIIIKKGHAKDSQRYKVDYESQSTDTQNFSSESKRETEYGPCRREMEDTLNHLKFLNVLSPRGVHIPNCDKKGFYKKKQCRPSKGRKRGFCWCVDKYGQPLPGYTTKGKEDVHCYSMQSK

R36A: IGF-1 single alanine mutant
Binding to IGFBP-3 ka [1]: 4.0 ± 0.1 ×10^5 M^−1s^−1 | Binding to IGFBP-3 KD [1]: wild-type kinetics | Specificity Relative BP-1 / Relative BP-3 [2]: 1.4 | Binding to IGFBP-1 ka [3]: 4.0 ± 0.2 ×10^4 M^−1s^−1 | Binding to IGFBP-1 KD [3]: wild-type kinetics

T4A: IGF-1 single alanine mutant
IC50 [4]: 19.4 ± 6.4 nM | relative specificity [5]: 2.2 | IC50 [6]: 0.8 ± 0.02 nM | Binding to IGFBP-3 ka [1]: 1.8 ± 0.6 ×10^5 M^−1s^−1 | Specificity Relative BP-1 / Relative BP-3 [2]: 3.3 | Binding to IGFBP-1 ka [3]: 1.9 ± 0.2 ×10^4 M^−1s^−1

P39A: IGF-1 single alanine mutant
Binding to IGFBP-3 ka [1]: 2.7 ± 0.2 ×10^5 M^−1s^−1 | Binding to IGFBP-3 KD [1]: wild-type kinetics | Specificity Relative BP-1 / Relative BP-3 [2]: 0.7 | Binding to IGFBP-1 ka [3]: 3.1 ± 0.2 ×10^4 M^−1s^−1 | Binding to IGFBP-1 KD [3]: wild-type kinetics

^125I-F49A: radiolabeled F49A IGF-1
Half-life t1/2^α ([7]; single IV dose in rats): 3.84 ± 3.12 min | Half-life t1/2^β ([7]; single IV dose in rats): 0.971 ± 0.336^+ hr | Half-life t1/2^γ ([7]; single IV dose in rats): 8.97 ± 4.50 h | clearance ([7]; single IV dose in rats): 427 ± 125*^+ ml/hr/kg | steady-state distribution volume ([7]; single IV dose in rats): 3201 ± 488*^+ ml/kg

V11A: IGF-1 single alanine mutant
Binding to IGFBP-3 ka [1]: 3.1 ± 0.5 ×10^5 M^−1s^−1 | Specificity Relative BP-1 / Relative BP-3 [2]: 1.1 | Binding to IGFBP-1 ka [3]: 1.9 ± 0.1 ×10^4 M^−1s^−1

CRAGPLQWLCEK-nh2 (CRAGPLQWLCEK-NH2; disulfide 1-10 (inferred)) [BP1-17]
matrix synthesis, IGF-1 in combination with peptide ([8]; IGF-1 40 ng/ml, peptide 0.1 mg/ml): to some extent

G1S-A70V: IGF-1 double mutant, first and last amino acids changed; template for alanine scan
relative specificity [5]: 1.0 | Binding to IGFBP-3 ka [1]: 2.9 ± 0.8 ×10^5 M^−1s^−1 | Specificity Relative BP-1 / Relative BP-3 [2]: 0.7 | Binding to IGFBP-1 ka [3]: 3.2 ± 0.2 ×10^4 M^−1s^−1

F16A/F49A: double mutant of IGF-1, F16A and F49A
IGFBP-3 ka [1]: 0.4 ± 0.1 ×10^5 M^−1 | IGFBP-3 kd [1]: 38.6 ± 2.7 ×10^−4 s^−1 | matrix synthesis in diseased human articular cartilage [8]: stimulated matrix synthesis in diseased human articular cartilage

WPVAEWYLCN [BP3-24]
IC50 (mut) / IC50 (wt) ([9]; IGF-1 inhibition, wt = BP3-01-ox): >500

E3A/F49A: double mutant of IGF-1 combining point mutations E3A and F49A
matrix synthesis in diseased human articular cartilage [8]: stimulated matrix synthesis in diseased human articular cartilage

F49A: IGF-1 variant wherein phenylalanine at position 49 is changed to alanine
IC50 [4]: > 1000 nM | IC50 [6]: 2.72 ± 1.11 nM | Binding to IGFBP-3 ka [1]: 2.7 ± 0.7 ×10^5 M^−1s^−1 | IGFBP-3 ka [1]: 2.7 ± 0.7 ×10^5 M^−1 | IGFBP-3 kd [1]: 17.1 ± 0.9 ×10^−4 s^−1 | Specificity Relative BP-1 / Relative BP-3 [2]: 16.7 | Binding to IGFBP-1 ka [3]: 1.26 ± 0.8 ×10^4 M^−1s^−1 | rate of clearance from blood ([7]; radiolabeled, IV, rats): cleared at a faster rate compared to wild-type human IGF-1 | kidney tissue-to-blood ratio ([7]; radiolabeled, IV, rats, 5, 15, 30 minutes): accumulate at statistically significant higher levels in the kidney compared to wild-type IGF-1; also recorded: accumulate at statistically significant higher ratios in the kidney compared to wild-type IGF-1 | clearance ([7]; single IV dose in rats): 427 ± 125 mL/h/kg | matrix synthesis in diseased human articular cartilage [8]: stimulated matrix synthesis in diseased human articular cartilage

CC[C@H](C)[C@@H]1NC(=O)[C@H](Cc2ccc(O)cc2)NC(=O)CNC(=O)[C@H](CCC(N)=O)NC(=O)[C@H](Cc2c[nH]cn2)NC(=O)[C@H](CCCNC(=N)N)NC(=O)[C@H](CC(=O)O)NC(=O)[C@H](Cc2c[nH]c3ccccc23)NC(=O)[C@@H](NC(=O)[C@@H](NC(=O)[C@H](CCC(=O)O)NC(=O)[C@H](Cc2c[nH]c3ccccc23)NC(=O)[C@H](C)N)C(C)C)CSSC[C@@H](C(=O)N[C@H](C(=O)N[C@H](C(=O)N[C@@H](CC(=O)O)C(=O)N[C@@H](CO)C(=O)O)[C@@H](C)O)[C@@H](C)O)NC1=O [BP3-4D3.11DEL] (H-AWEVCWDRHQGYICTTDS-OH; disulfide 5-14; N-terminus and C-terminus assumed)
IC50 [9]: 80 µM
